Experimental data as given in the DeepSol protein solubility set.

assay: soluble on expression in E. coli; label from the status in PepcDB or PDB records

Sequence | soluble on expression in E. coli
MESEQCPVGKIPHIRMDDGAGIEEFYTFGRILGQGSFGMVFEAIDKETGAKWAIKKVNKEKAGSSAMKLLEREVSILKTVNHQHIIHLEQVFESPQKMYLVMELCEDGELKAVMDQRGHFSENETRLIIQSLASAIAYLHNKDIVHRDLKLENIMVKSSFIDDNNEMNLNIKVTDFGLSVQKHGSRSEGMMQTTCGTPIYMAPEVINAHDYSQQCDIWSIGVIMFILLCGEPPFLANSEEKLYELIKKGELRFENPVWESVSDSAKNTLKQLMKVDPAHRITAKELLDNQWLTGNTLSSARPTNVLEMMKEWKNNPESDEETNTDEETEQSAVYSPSANTAKQPTNAAKKPAAESVGMTSSNSSSSKLLSAESKAEPEKSSETVGHASVAKTTLKSTTLFRGKKRL | soluble
MSLSTRSRIREERKDPLSALAREYGGSKRNALLKWCQKKTEGYQNIDITNFSSSWNDGLAFCALLHTYLPAHIPYQELNSQDKKRNFTLAFQAAESVGIKSTLDINEMARTERPDWQNVMLYVTAIYKYFETEGHHHHHH | soluble
MGSDKIHHHHHHMENIMLQEIELKLAISPQIGIELPQYLAKFTILEHQNLFLGNTYYDYPDHFLAKQKMGLRIRQEDQELTLTLKTNGKVVSGLHSRPEYNLPLIEKETPTNAQLRGLYPFEQLPSSTLQPIFSTDFNRTFWLVEFQQSKIEVAFDQGKIIAGEYEQPISEIEFELKSGNVQDLFDFVETLPFERDIYFSSASKAKRGYLLGSKQFLTDWLNKWRDFLKEEREESAVDFCAKFNAVLKMEQKLLEETLSFSPTLFSQDFMKTVERVGAFFNLYHYYDENGKILEAMATEKQKETRLPALLESNQKIFVEIRDLIRFHSETKDNEKTIEKLTALLKSRVYFERMIKLMELSYDLG | not soluble
MGSDKIHHHHHHMLSRFARQLALPVFNGVLHPTRATSSIAHTIKVAHKIDETREKALLGGGKKRVDAQHARGKLTARERIDLLLDRNTFREYDMFAEHTCNDFGMQKEKYPGDSVVTGRGEINGRTVFVFSQDFTVFGGSLSSIHAKKIVKIMREAMLVGAPVIGLNDSGGARIQEGVESLAGYADIFQENVMASGVVPQISMIMGPCAGGAVYSPALTDFTFMVRDTSYLFITGPDVVKAVTNEEVTQEELGGAKTHTVTSGVAHGAFDNDVDALMSLRELFNYLPLSNTDAAPIRAAEDPWDRAVPSLDTVVPLESTAAYNMKDVVHALVDEGDFFEIMPDYAKNLVIGFARMNGRTVGIVGNNPKFAAGCLDINSSVKGARFVRFCDAFNIPIITLVDVPGFLPGTAQEYGGIIRHGAKLLYAFAEATVPKITIITRKAFGGAYDVMSSKHLRGDINYAWPTAEVAVMGAKGAVSILFRNDKEHAVQHEEEYTELFSNPFPAAVRGFVDDIIIPSETRKKVCEDLNMLESKKLKNPWKKHGNIPL | not soluble
MGHHHHHHSHGTRAFGARRNTIDSTSSFSQFRNLSHRSLSIGRASGTQGSLDTGSDLGDFMDYDPNLLDDPQWPCGKHKRVLIFPSYMTTVIDYVKPSDLKKDMNETFKEKFPHIKLTLSKIRSLKREMRKLAQEDCGLEEPTVAMAFVYFEKLALKGKLNKQNRKLCAGACVLLAAKIGSDLKKHEVKHLIDKLEEKFRLNRRELIAFEFPVLVALEFALHLPEHEVMPHYRRLVQSS | soluble
VEQELATKMLQIQSKRFYLDVKQNRRGRFIKVAEIGADGRRSQIYLALSTAAEFRDHLSSFSDYYASLGPPNTDNLPEDGKLKSEMMIKDYRRYYLDLKENARGRFLRVSQTITRGGPRSQIALPAQGMIEFRDALTDLLEEFGAN | soluble
MTESTTSSPHDAVFKTFIFTPETARDFLEIHLPEPLRKLCNLQTLRLEPTSFIEKSLRAYYSDVLWSVETSDGDGYIYCVIEHQSSAEKNMAFRPMRYATAAMQSHLDKGYDRVPLVVPLLFYHGETSPYPYSLNWLDEFDDPQLARQLYTEAFPLVDITIVPDDEIMQHRRIALLELIQKHIRDHDLIGMVDRITTLLVRGFTNDSQLQTLFNYLLQCGDTSRFTRFIQEIAERSPLQKERLMTIAERLRQEGHQIGWQEGKLVGLQQGKLEGLQEGMHEQAIKIALRMLEQGIDRDQVLAATQLSEADLAANNH | not soluble
MGSDKIHHHHHHMDKPMTENPVHPAEAGPSGPADAAGKAPGLAAVESRQRMRDGTELLLRTWEPDPCMFPETVGCVLLVHGLAEHCGRYQHVAEVLCGLGLRVRAYDQRGHGASGGARMVAEHPDAYLNDLVEIHDAAVRVWKELPILLGHSMGGLVAARFATARLRPVRALVLSSPALALRLSPTMLTIHRVLLTLAPRLRVPNPIDARMLSHDAHVVARYRADPLVQTTITAGVLESFIRGMAQAQTDAPRLEAPMLMLVGGADKIVDPGGSRTFFDHAPADLREEVWFGEGYHEIFNEAEPLRSKVFAALTDWLRRHLAQPV | not soluble
MTIELRDVTMENYFDVLNLDVKEYQKQFIATNAISLAEAYVYTKNGDFVAPLAVYDNDAIIGFVMIAYDKKIGISSGNYLLFRFMIDKNFQNQGYFKPIMDKVLDYVRTAPAGLSNKLWLSYEPENEQARFCYLSYGFKETGEISENEVVAIYDLTIEK | not soluble
MGSDKIHHHHHHMKKILVVSHGAALGGSPISGLNIGRHIDKNQFEVIYAFGEEREIFDIAKKEGFKVFFVPKRSYLTIWDYAKIICREKIDIVHLNTLTSYYKYPAMAAWLCRKKIVWFVRENPEEKRCVRLGKYINALADRIVTVSLDTAKKMFYANHAKLCTIYNGIDLKFKKIEGRERLCEELGLSAREKYILCVASLEERKGVKDLVRAFLSSLPKLQGYKLLIVGEDRTKEQRYFLELKELAKDSSEVIFYGKSQKIQQLLSLSELFVLPSYWEGMARVILEAMACGLPVVASDAGGNREQVMDGVNGFLFPPRDIQALSAALEKAILGGRTQLLGKNSRELLEKNFDIKETTKKIENLYKAL | not soluble
MTEKINIQEVLVVEGKDDTANLRRFYEVDTYETRGSAITEEDLERINRLNDLRGVIVLTDPDYNGERIRKLIMAAVPTARHAFLNRNEAVPSSKSKGRSLGVEHANFEDLQKALAHVTQQYDDESYFDIRQTDLIRLGLLMASDSRKRREYLGEKLRIGYANGKQLLKRLELFGITLAEVEEVMETYEE | not soluble
CLTRISRPWLVTSCIWNKQLIRRAVVWLCGLTGKPILKLTNKDYTENGLGELLAKYGSAYEVNIKLFNDIQHTITGWPGGKPNADDSSRPERALPYPKRVVIFSPHPDDDVISMGGTFHKLVNQGHDVHVAYQTSGNIAVGDEEVIRYVSYLRNVCRQYGHESSPILAKAEEVRHYLMHKKIEGDPEQEDIRFMKGTIRREEARTACRYLGLPEDHVHFLDLPFYETGLIRKNPLGEEDVRIIMALLEEIQPHRIFVAGDLADPHGTHRICLNAVLAAIDELKEESWFKEDCRVWMYRGAWAEWEIDYIEMAVPMSPDELRFKRNSILKHQSQMESAPFLGDDERLFWQRAEDRNRQTATLYEKLGLASYEAIEAFVQYRPVE | not soluble
MECFRSRIITIYLKRLKYSPLLWRNAKRGTRSSYMWLYVSICCGDFQFWKLSGTPSSPTCKTHSCGFIFWTNTHLLGDQLRYTIMDTIGMYLIIKQRLRNIHKNDPRLFQYVFENGHPLPYNR | not soluble
RSDSMILMTVNPKTKKTTMMSLERDILTRIESGNGQAHEAKLNSAYADGGAELAIETIQKMMNIHIDRYVMVNMRGLQKLVDAVGGITVNNILGFPISISDQEEFNTISIGVGEQHIGGEEALVYARMRYQDPEGDYGRQKRQREVIQKVMEKALS | not soluble
MGLDTIEKGADGLDSIKSLAFVYGETDNPYTKTSELFTWLFGHEIADTVLLLLNDHIYILGSNRKVEFFGSVTGDNQSSGKVPTVSTLLRDKTDKDAGNFEKLIDHIKSAGGDVGNFVKEKFSSEFVSSWNKALEEGGVNKNDVTLAFTHLFAVKDDKEMDLIRKSAQATTASWTAARARYVEISDNEKVLIVLKIVELGVLLRVRHSVLSNQFAAFMKDSKVQQALAKYEADTCYDPIKMLIFVDRKYDSVVVPIFGIPVPFHISMIKNCSQSVEGDLTYLRINFATPGSQVGKDSGQFPHPLAHYMKEFTFRASNIKDHHSDSTAPSRNLSTAFRFIKEMQKRFKSEEAEQREKEGAVKQDKLILSQNKLNPKLNLLICPNIIQKLITGSLEAHTNGFRFLFNSFSRYTSLRAFFEEGGWSFLNAESDNEEAMDDSDDSDAYDPEEEDASAGSGSESDEDESEGEETESDDDDEGSLDSDEFVQPIFAF | not soluble
MGSDKIHHHHHHMLSKICMKILTVLDSYPPDLNGGAYFTHRLAKFLQAKGHEVLVICPSRSLKQGYTSYEGVNLYGVRSWPALGYKNFRVCWPFFIKKGILKAITDFNPDVVHLQGKFFLGGICYRACRKKGIPLMATNHFMPENFFHYTHLPKYFEKWFHRTTWNIVIDMLNHVKIVTTPTHTAANLLKEVHIQKEIHVVSCGVDLQKFQPKQNANLIRQRYKIPDKPILLYAGRLDKEKNLSIAIKAFYKARQSIDAHFVLTGRGAELQRLKKLVQTLNLTEHVTFTGYLSDAEYPLVYSLANCFVNPGTAELQSIVALEAIASGLPLLAAKAMALPELVKEGVNGYLFDPNDVETLSCYMVKILSDRTFSEQMGRESRKLSQEHDIKRTIEQYETLYQSMVS | not soluble
MAATQEEIVAGLAEIVNEIAGIPVEDVKLDKSFTDDLDVDSLSMVEVVVAAEERFDVKIPDDDVKNLKTVGDATKYILDHQA | soluble
MTEPSTSGAQDHDDYLVTLSSPQRQCTIRVVQPASALKRKLPTSSVPEFNPDSYGESIPENAPRPVCETCSVAWSTWAAYEFHMLQTHIIYRPFRCSGCRNLNFHTEDEGKHHLEHFHGGKPGSFQLIKQTDFAKENQLIECLENAKTTEQLGISKERLENGLKMIEKLQKIKFKAVKVHLPCCLRHEMISKHTETEKEAPPQEKSVTNAQKPGNPALLSLESRNYDYEQQDTVGI | not soluble
MGSDKIHHHHHHKYTLRFGHVLAPGEPYHQAFLKWAKAVEEKTNGDVRIEVFPSSQLGVEEDIIEQIRMGAPVGWNTDSARLGMYVKDIGVMNLAYFIDFMGAKTPEEAIEVLKKIKQSPTMQKWLKELEQRFGIKVLSFYWVQGYRHFVTNKPIRKPEDLNGLRIRTPGAPAWQESIRSLGAIPVAVNFGEIYTAVQTRAVDGAELTYANVYNGGLYEVLKYMSETGHFLLINFEIVSADWFNSLPKEYQKIIEEEMDKAGIEVSLKIMKELEEEYKQKCIEKGMAVIPASEIDKEAFMEKAKQAYKNLGLENALNQLIKEVKGE | not soluble
MLKDQDRIFTNLYGLKDKSLKGVMARGHWDGTKQIIEKGRDWIINEMKASGLRGRGGAGFPTGLKWSFMPKENDGRPHYLVVNADESEPGTCKDREILRNDPHTLIEGCVIAGFAMGAHTAYIYVRGEYMREREALQAAIDECYDAGLLGKNNKNGWDYDIYVHHGAGAYICGEETALLESLEGKKGQPRLKPPFPANMGLYGCPTTVNNVESIAVAPTILRRGASWFSSIGRPNNVGTKLFMVSGHVERPCTFEDALGLSFRELIEHHCGGIRGGWDNLLGVIPGGASCPIVRGEDMKDAIMDFDGMREVKSSFGTGGMIVMDKSTDVIKAIARIAAFFKHESCGQCTPCREGTGWMWRVLERMVKGNAQKREIDMLFEVTKQIEGHTICALGDAAAWPVQALIRNFRPEIEKRIDQYTYRAMDDGAVLEAAEAAALEHHHHHH | not soluble
MFALEVLALERRTALLLGASGLVGGELLKLLLQSDLYRCVTIFVRTPLPVEHEKLQQVVVDFARLESYERYFYVDDVFCCLGTTRKKAKTKQQFIQVDYEYTLRAAALAEKCRAKSFLTVSSVGANPCSPFFYQRVKGETEEALQRLSIPSLHIFRPSLLVGKRREFRLGEALGGWLLCRLPFLFVGKWKKYKPVDAHQLALAMFYRAASATSGVHIYECDELARIS | not soluble
